Measured values published in patent publication US20120277161A1 (INTER K, published 2012).

Experiments:
[1] = molecular target: cellular Src tyrosine kinase (c-Src) (human, UniProt P12931 1-536, limits assumed); test: cell-based or functional assay
[2] = molecular target: human ERK2 (human, UniProt P28482 1-360); test: cell-based or functional assay
Sequence of human ERK2 (P28482 whole entry): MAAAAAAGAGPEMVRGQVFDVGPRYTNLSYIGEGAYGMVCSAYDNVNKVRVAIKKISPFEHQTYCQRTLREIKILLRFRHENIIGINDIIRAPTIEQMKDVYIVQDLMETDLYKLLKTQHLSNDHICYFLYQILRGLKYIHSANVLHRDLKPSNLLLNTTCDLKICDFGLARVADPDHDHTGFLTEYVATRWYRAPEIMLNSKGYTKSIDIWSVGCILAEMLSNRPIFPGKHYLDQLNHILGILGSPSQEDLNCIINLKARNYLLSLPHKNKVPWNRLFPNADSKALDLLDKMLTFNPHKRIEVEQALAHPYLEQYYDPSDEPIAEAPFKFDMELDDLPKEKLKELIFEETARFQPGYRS

Row | Binder | % Inhibition of control, c-Src tyrosine kinase activity, cell-free assay, peptide at 50 µM [1] | inhibition of ERK2 activity relative to control, cell-free assay, peptide at 50 µM [2]
1 | WQTGT [WQTGT peptide] | 0 % inhibition | 
2 | RSKAKWQTGTNPLYR [RSKAKWQTGTNPLYR peptide] | 44 % inhibition | 
3 | KEKLKNPLFK [KEKLKNPLFK peptide] | 55 % inhibition | 
4 | RSRARNPLYR [RSRARNPLYR peptide] | 37 % inhibition | 4 % inhibition
5 | NPLYR [NPLYR peptide] | 0 % inhibition | 
6 | RSKAKNPLYR [RSKAKNPLYR peptide] | 57 % inhibition | 
7 | RSKAK [RSKAK peptide] | 3 % inhibition | 
8 | RARAKNPLYK [RARAKNPLYK peptide] | 29 % inhibition | 
